{"source": "patent US10401365B2", "about": "“Inhibition of chemokine CCL7 or receptor CCR3 of same for the treatment and diagnosis of prostate cancer” (Universite Paul Sabatier (Toulouse III), priority 2014, dated 2019)", "molecules": {"B1": {"name": "m5CCR3: shRNA targeting the gene CCR3, SEQ ID NO: 2 (nucleic acid)", "chain": "CGCGTCCCCGACCACACCCTATGAATATTTCAAGAGAATATTCATAGGGTGTGGTCTTTTTGGAAAT"}, "B2": {"name": "m6CCR3: shRNA targeting the gene CCR3, SEQ ID NO: 3 (nucleic acid)", "chain": "CGCCGTCCCCGGTGAGAGGTTCCGGAAACTTCAAGAGAGTTTCCGGAACCTCTCACCTTTTTGGAAAT"}, "B3": {"name": "m4CCR3: shRNA targeting the gene CCR3, SEQ ID NO: 1 (nucleic acid)", "chain": "CGCGTCCCCAGACCACACCCTATGAATATTCAAGAGATATTCATAGGGTGTGGTCTTTTTTGGAAAT"}}, "key": {"PC-3 cells [1]": {"system": "PC-3 cells", "assay": "Boyden chamber migration of PC-3 cells against conditioned medium from mature adipocytes (CM-Ad, 3T3-F442A)", "type": "cell-based, human", "excerpt": "The monoclonal antibodies targeted against CCR1 (D063-3 clone 141-2) and CCR3 (D083-3, clone 444-11) are obtained from MBL International (Worburn, Mass., USA). The anti-CCR2 (clone E68) and anti-CCR3 (clone Y31) monoclonal antibodies are obtained from Abcam (Cambridge, Mass., USA). The monoclonal antibodies against CXCR2 (clone 48311), CXCR4 (clone 44716) and CCR1 (clone 53504) are obtained from R&D Systems (Minneapolis, Minn., USA).\nThe inhibitor targeting the receptor CXCR4, AMD3100 (Rosenkilde, Gerlach et al. 2004) is obtained from Sigman Aldrich and is used at final concentrations of 1, 10, 50 and 100 nM. The inhibitor targeting the receptors CXCR1 and CXCR2, SB225002 (White, Lee et al. 1998)) is obtained from Tocris (Bristol, United Kingdom) and is used at final concentrations of 1, 10 and 100 nm. […]\nIn order to evaluate the ability of tumor cells to migrate according to the culture medium, Boyden chamber migration tests were conducted using 8 μm porosity Greiner bio-one inserts. […] The migration of the tumor cells is evaluated after 12 hrs of migration at 37° C. and 5% CO2 by 1% toluidine blue staining supplemented with 0.1M borax (Sigma, St Louis, Mo., USA) and quantification of the absorbance (measured at 570 nm)."}, "PC-3 cells [2]": {"system": "PC-3 cells", "assay": "Migration of PC-3 cells against serum-free medium with recombinant CCL7", "type": "cell-based, human", "settings": "dose-dependent, 1-100 ng/ml", "method": "(§1) In order to evaluate the ability of tumor cells to migrate according to the culture medium, Boyden chamber migration tests were conducted using 8 μm porosity Greiner bio-one inserts. In the lower compartment either culture medium with or without serum, or conditioned medium from F442A adipocytes (CM-Ad), human periprostatic adipose tissue (CM-PPAT), mouse perigonadal adipose tissue (CM-PGAT), adipocytes or vascular fraction cells (SVF) isolated from PPAT or PGAT is introduced. These conditioned media may be pretreated for 30 minutes by adding antibodies blocking the chemokine CCL7. Experiments with the recombinant chemokine CCL7 were also conducted, in this case the chemokine is added to serum-free culture medium to verify the chemoattractant potential thereof on a cell line. In the upper chamber 1×10^5 cells, previously depleted for 6 hours of serum are deposited in serum-free culture medium. […] The migration of the tumor cells is evaluated after 12 hrs of migration at 37° C. and 5% CO2 by 1% toluidine blue staining supplemented with 0.1M borax (Sigma, St Louis, Mo., USA) and quantification of the absorbance (measured at 570 nm)."}, "Du-145 cells": {"system": "Du-145 cells", "assay": "Migration of Du-145 cells against serum-free medium with recombinant CCL7", "type": "cell-based, human", "settings": "dose-dependent, 1-100 ng/ml", "method": "as §1"}, "TRAMP-C1P3 cells [3]": {"system": "TRAMP-C1P3 cells", "assay": "Migration of TRAMP-C1P3 cells against serum-free medium with recombinant CCL7", "type": "cell-based, mouse", "settings": "1-100 ng/ml", "method": "as §1"}, "RM1-BM cells": {"system": "RM1-BM cells", "assay": "Migration of RM1-BM cells against serum-free medium with recombinant CCL7", "type": "cell-based, mouse", "settings": "100 ng/mL; p<0.01", "method": "as §1"}, "receptor CCR3": {"system": "receptor CCR3", "assay": "Expression of receptor CCR3 in shRNA-transfected TRAMP-C1P3 cells", "type": "cell-based, mouse", "settings": "stable shRNA, lentiviral", "method": "The tumor cells (from prostate, breast, colon, pancreas, or melanoma) were washed three times in FACS buffer (PBS supplemented with 0.5% BSA and 2% FCS) and fixed with a 3.7% paraformaldehyde solution for 20 min at 4° C. The tumor cells were suspended with anti-CXCR4 (10 μg/ml), anti-CXCR1 (10 μg/ml), anti-CXCR2 (1:25), anti-CCR1 (10 μg/ml), anti-CCR2 (20 μg/ml), anti-CCR3 (10 μg/ml) antibodies or isotypical mouse anti-IgG control antibodies at 4° C. for 2 hours. The tumor cells were incubated with a mouse anti-IgG secondary antibody (dilution to 1:200) coupled with Alexa Fluor 488 or coupled with Cyanine 5 (for cells expressing GFP) for 30 minutes at 4° C. Finally, 2×10^4 cells were analyzed by flow cytometry using a FACScan and FACScalibur flow cytometer (analysis on CellQuest™ software (BD-PharMingen)).\nIn order to inhibit the expression of the receptor CCR3 (NM_009914) in a stable manner in TRAMP-C1P3 cells, an shRNA approach was used enabling stable negative regulation even after several months of culture. The interfering sequences were generated using the Dharmacon “Center siDesign” tool. The sequences of the sense strands of shRNA generated are as follows:\n(§2) The nucleotides targeting the sequence of CCR3 are shown in upper case, whereas the sequence responsible for the hairpin structure and the sequences required for directional cloning are represented in lower case letter. The lentiviral vector LVTHM® is a lentiviral vector (LV) coding for the shRNA CCR3 sequences under the control of the H1 promoter also expressing GFP. The TRAMP-C1P3 cells were then transfected in the presence of m4, m5 or m6-LVTHM for 24 hours at a multiplicity of infection (MOI) of 1:10. The transfected population is selected by GFP expression (cell sorting). These cells were then analyzed by flow cytometry to validate the loss of expression of the CCR3 gene. The control used is the pLVTHM plasmid which expresses an ineffective shRNA sequence."}, "TRAMP-C1P3 cells [4]": {"system": "TRAMP-C1P3 cells", "assay": "Migration of shRNA-transfected TRAMP-C1P3 lines against CM-Ad or adipose tissue conditioned medium", "type": "cell-based, mouse", "method": "In order to evaluate the ability of tumor cells to migrate according to the culture medium, Boyden chamber migration tests were conducted using 8 μm porosity Greiner bio-one inserts. In the lower compartment either culture medium with or without serum, or conditioned medium from F442A adipocytes (CM-Ad), human periprostatic adipose tissue (CM-PPAT), mouse perigonadal adipose tissue (CM-PGAT), adipocytes or vascular fraction cells (SVF) isolated from PPAT or PGAT is introduced. These conditioned media may be pretreated for 30 minutes by adding antibodies blocking the chemokine CCL7. Experiments with the recombinant chemokine CCL7 were also conducted, in this case the chemokine is added to serum-free culture medium to verify the chemoattractant potential thereof on a cell line. In the upper chamber 1×10^5 cells, previously depleted for 6 hours of serum are deposited in serum-free culture medium. For the migration tests in the presence of blocking antibodies specific for CCR1 or CCR3 or inhibitors of CCR1/CCR3, CCR2, CXCR1/CXCR2 and CXCR4, the tumor cells are previously incubated in a tube with the blocking antibody or the inhibitor for 30 min at 37° C. The migration of the tumor cells is evaluated after 12 hrs of migration at 37° C. and 5% CO2 by 1% toluidine blue staining supplemented with 0.1M borax (Sigma, St Louis, Mo., USA) and quantification of the absorbance (measured at 570 nm).\nas §2"}, "TRAMP-C1P3 cells [5]": {"system": "TRAMP-C1P3 cells", "assay": "Intraprostatic injection of TRAMP-C1P3 cells in C57BL/6 mice, tumor growth", "type": "in vivo", "settings": "for tumor size: 2×10^6 cells intraprostatic, n=11, p<0.001 vs shCtrl", "method": "Male C57BL/6 mice aged 18 weeks on a normal or high-fat diet were anesthetized with isoflurane. A transverse incision was made at the lower part of the abdomen. The muscles of the abdominal wall were incised, and the bladder and the seminal vesicles were released so as to expose the dorsal lobe of the prostate. A suspension of 2×10^6 cells (in 30 μl of PBS) was then carefully injected under the prostate capsule by means of a gauge 30 needle. The incision was closed using 4-0 suture and clips. The animals were then placed in cages and regular monitoring is conducted in order to monitor macroscopically the general condition of the mouse. After 20 days of tumor establishment, the mice are sacrificed, the primary tumor is thus removed, measured and weighed, and an acquisition in white light and GFP is carried out. The tumors are then placed in a paraformaldehyde solution (4%) and included in paraffin."}}, "note": "“And” between values parts separate entries of the source, which are not always exact repeats. Equal values may be shown once."}
{"molecule": "O=C(Nc1ccc([N+](=O)[O-])cc1O)Nc1ccccc1Br", "note": "[SB225002]", "values": [{"measurement": "inhibition of migration of PC-3 cells induced by CM-Ad", "setting": "PC-3 cells [1]; 50 nM, p<0.01", "value": "approximately 30%"}]}
{"molecule": "c1cc(CN2CCCNCCNCCCNCC2)ccc1CN1CCCNCCNCCCNCC1", "note": "[AMD3100]", "values": [{"measurement": "reduction of migration of PC-3 cells against CM-Ad", "setting": "PC-3 cells [1]; 100 nM (maximum dose, only dose effective), p<0.05", "value": "approximately 20%"}]}
{"molecule": "recombinant chemokine CCL7: human recombinant chemokine CCL7, ligand of CCR3, added to serum-free medium as chemoattractant", "values": [{"measurement": "dose from which induced migration of PC-3 cells is significant compared to medium alone", "setting": "PC-3 cells [2]", "value": 50, "unit": "ng/mL"}, {"measurement": "dose from which induced migration of Du-145 cells is significant compared to medium alone", "setting": "Du-145 cells", "value": 50, "unit": "ng/mL"}, {"measurement": "dose from which dose-dependent chemotaxis of TRAMP-C1P3 cells is induced", "setting": "TRAMP-C1P3 cells [3]", "value": 50, "unit": "ng/mL"}, {"measurement": "induction of migration of RM1-BM cells with respect to serum-free medium", "setting": "RM1-BM cells", "value": "significant migration"}]}
{"molecule": "B1", "values": [{"measurement": "expression of receptor CCR3 in TRAMP-C1P3 line with respect to control line (shCtrl)", "setting": "receptor CCR3", "value": "significant reduction"}, {"measurement": "migration of shCCR3 TRAMP-C1P3 lines against CM-Ad with respect to control line", "setting": "TRAMP-C1P3 cells [4]", "value": "significant reduction"}]}
{"molecule": "B2", "values": [{"measurement": "expression of receptor CCR3 in TRAMP-C1P3 line with respect to control line (shCtrl)", "setting": "receptor CCR3", "value": "significant reduction"}, {"measurement": "migration of shCCR3 TRAMP-C1P3 lines against CM-Ad with respect to control line", "setting": "TRAMP-C1P3 cells [4]", "value": "significant reduction"}, {"measurement": "migration of shCCR3 TRAMP-C1P3 line against conditioned medium of ND AT-mu-PG with respect to control line", "setting": "TRAMP-C1P3 cells [4]; ND AT-mu-PG", "value": "reduction in the migration is also detected"}, {"measurement": "increase in migration in presence of HFD AT-mu-PG", "setting": "TRAMP-C1P3 cells [4]; m6CCR3 line, unlike shCtrl line", "value": "not significant"}, {"measurement": "invasion of the dorsal lobe of the prostate (histology, HE) compared with C1P3 Ctrl line", "setting": "TRAMP-C1P3 cells [5]; histological sections", "value": "much less extensive invasion"}, {"measurement": "tumor size", "setting": "TRAMP-C1P3 cells [5]; mice on normal-fat diet", "value": "220±30", "unit": "mm3"}, {"measurement": "tumor size", "setting": "TRAMP-C1P3 cells [5]; obese mice on high-fat diet", "value": "210±25 mm3 and 200±50 mm3"}]}
{"molecule": "B3", "values": [{"measurement": "expression of receptor CCR3 in TRAMP-C1P3 line with respect to control line (shCtrl)", "setting": "receptor CCR3", "value": "significant reduction"}, {"measurement": "migration of shCCR3 TRAMP-C1P3 lines against CM-Ad with respect to control line", "setting": "TRAMP-C1P3 cells [4]", "value": "significant reduction"}]}
